PMC13169712, “Structural determinants of peanut-induced anaphylaxis” (The Journal of allergy and clinical immunology, 2025)

Experiments:
Settings in all cases: both partners purified
[1] = target: T1, recombinant Ara h 2.01 (Arachis hypogaea, Ara h 2.01, UniProt Q6PSU2;PDB, strain); assay: SPR; Carterra LSA; antibody as ligand, allergen or peptide as analyte; how the antibody was held for these pairs is not told
T1 construct: also called rArah2.01; source: HEK cell-produced, recombinant

[2] = target: T2, recombinant Ara h 2.02 (Arachis hypogaea, Ara h 2.02, UniProt Q6PSU2, strain); assay: SPR; Carterra LSA; antibodies noncovalently bound to PAGHC30M (Protein A/G) sensor chips; analyte at 0.16, 0.8, 4, 20, 100 and 500 nM in HBS-TE, 0.05% BSA; 5 min association, 15 min dissociation
T2 construct: also called rArah2.02; source: recombinant

[3] = target: T3, rAra h 2 with the DPYSPS-containing loop deleted (Arachis hypogaea, Ara h 2.01 background, UniProt Q6PSU2;PDB, point mutant); assay: as above
T3 construct: also called rAra h 2_loopdel; rArah2_loopdel

[4] = target: T4, recombinant Ara h 6 (Arachis hypogaea, UniProt Q647G9); assay: as above
T4 construct: Ara h 6, Arachis hypogaea; May be the same construct as Ara h 6c; also called rAra h 6; rArah6; source: recombinant

[5] = target: T2, recombinant Ara h 2.02; assay: SPR; Carterra LSA; antibody as ligand, allergen or peptide as analyte; how the antibody was held for these pairs is not told

B1: 16A8 human IgE mAb (antibody, V domains shown)
VH: QVQLVQSGPDVRKPGATVKVSCQTSGYRFTDYEMNWVRQAPGQGLEWIGLINPHSGDTAYAQKFQGRVTMTSDTSDSTVYLELSGLTPDDTAVYYCARSQGTFEVYYFVSWGQGSLVTVSS
VL: SYVLTQPPSMSVAPGTTASIPCGANNIAKKRVHWYRQKPGQAPVVVVSDDEDRSSVIPDRFSGSKSGDTATLTISRVEAGDEGDYYCQVWDSKTDHVVFGGGTKVTVL
notes: variable region as in the heavy chain of m1; human IgE heavy chain constant region; as the light chain of m1; In the SPR some pairs used antibody captured on a Protein A/G chip; also called 16A8 antibody
In the case of B1, the Kd [1] is reported as 0.065 nM, the koff [1] is reported as 5.63e-05 s⁻¹ and the kon [1] is reported as 872000 M⁻¹ s⁻¹. For the same binder, the Kd [2] was 0.036 nM, the koff [2] was 3.82e-05 s⁻¹ and the kon [2] was 1.35e+06 M⁻¹ s⁻¹. It also gave a Kd [3] of 0.017 nM, a koff [3] of 3.69e-05 s⁻¹ and a kon [3] of 2.22e+06 M⁻¹ s⁻¹. The Kd [4] was 0.036 nM, the koff [4] was 8.57e-05 s⁻¹ and the kon [4] was 2.39e+06 M⁻¹ s⁻¹.

B2: 38B7 human IgE mAb (antibody, V domains shown)
VH: QVQLVESGGGVVQPGRSLRLSCVGSGFTFRRDAKYWVRQAPGKGLEWVAAISHDGGEEDYAESVKGRFTISRDNSRETVYLEMNSLRPEDTAVYYCATTRSGWYFDYWGQGALVTVSS
VL: EIVLTQSPATLSLSPGARATLSCRASQSVDTYLAWYQQRRGQSPRLLIYDASKRATGIPARFSGSGSGTDFTLTISSLEPEDFAVYYCQQRNNWRTWTFGQGTKVEIN
notes: variable region as in the heavy chain of m5; human IgE heavy chain constant region; as the light chain of m5; In the SPR some pairs used antibody captured on a Protein A/G chip; also called IgE mAb 38B7; 38B7 IgE
Binder B2 has a Kd [1] of 30 nM, a koff [1] of 0.000459 s⁻¹ and a kon [1] of 15500 M⁻¹ s⁻¹. For the same binder, the Kd [5] was 3.5 nM, the koff [5] was 0.000474 s⁻¹ and the kon [5] was 165000 M⁻¹ s⁻¹. B2: no binding (tested: 500 nM (highest analyte concentration)) [4].
